Measurements: patent US20240067944A1 (published 2024)

What was measured:
[1] = molecular target: human plasma-derived FX (Haematologic Technologies Inc, USA) (human) (UniProt P00742); test: cell-based or functional assay
[2] = molecular target: T1, human plasma-derived FX (Haematologic Technologies Inc, USA) (human, UniProt P00742 41-179; P00742 183-488); test: SPR, FX captured on immobilised anti-GLA-FX antibody, steady state analysis, 25 C
T1 construct: also called coagulation Factor X; human FX
Method: Briefly, an anti-GLA-FX, prepared recombinantly as described above, was immobilised on a CM4 sensor chip or a Xantec HLC200M using standard amine coupling chemistry at pH 5. 10 nM FX (Haematologic Technologies, USA) was injected at a flow rate of 10 μL/min for 30 seconds. Subsequently 1000, 100, 10, 1, 0.1 and 0 nM of VHH polypeptide compound, according to Table 9, below were injected at a flow rate of 50 μL/min for 200 seconds to allow for binding to FX followed by a flow of 10 minutes with a running buffer (10 mM HEPES, 150 mM NaCl, 5 mM CaCl₂), 0.05% (v/v) Surfactant P20, 1 mg/mL bovine serum albumin, pH 7.4) injection allowing for dissociation from FX. The running buffer was also used for dilution of anti-FX VHH polypeptide compounds. Regeneration of the chip was achieved using a regeneration buffer consisting of 50 mM EDTA in running buffer, 30 seconds contact time, and a 30 μL/min flow rate. The binding data were collected at 25° C. and were analysed according to a 1:1 model using BiaEvaluation 4.1 supplied by the manufacturer (Biacore AB, Uppsala or Bruker Analyser).
(§1) Therefore, the reported KD values are determined based on steady state analysis.

[3] = molecular target: T2, Benefix (Pfizer Inc, USA), FIX (human, UniProt P00740 47-461); test: SPR, FIX (Benefix) captured on immobilised anti-GLA-FIX antibody, steady state analysis, 25 C
T2 construct: Bought product; also called FIX (Benefix®)
Method: Briefly, anti-GLA-FIX, prepared recombinantly as described above, was immobilised on a CM4 sensor chip or a Xantec HLC200M using standard amine coupling chemistry at pH 5. FIX (10 nM) was injected at a flow rate of 10 μL/min for 1 minute. Subsequently 1000, 100, 10, 1, 0.1 and 0 nM of VHH polypeptide compound were injected at a flow rate of 30 μL/min for 4 minutes to allow for binding to the FIX (Benefix®) followed by a flow of 5 minutes running buffer (10 mM HEPES, 150 mM NaCl, 5 mM CaCl₂), 0.05% (v/v) Surfactant P20, 1 mg/mL bovine serum albumin, pH 7.4) injection allowing for dissociation from FIX. The running buffer was also used for dilution of anti-FIX VHH polypeptide compounds. Regeneration of the chip was achieved using a regeneration buffer consisting of 50 mM EDTA in running buffer, 30 seconds contact time, and a 30 μL/min flow rate. The binding data were collected at 25° C. and were analysed according to a 1:1 model using BiaEvaluation 4.1 supplied by the manufacturer (Biacore AB, Uppsala).
as §1

[4] = molecular target: T1, human plasma-derived FX (Haematologic …); test: cell-based or functional assay

T1 sequence (P00742 41-179, chain 1 of 2): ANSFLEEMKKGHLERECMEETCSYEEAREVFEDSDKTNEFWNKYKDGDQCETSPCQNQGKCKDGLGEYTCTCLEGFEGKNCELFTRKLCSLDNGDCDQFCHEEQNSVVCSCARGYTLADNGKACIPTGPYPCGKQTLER
T1 sequence (P00742 183-488, chain 2 of 2): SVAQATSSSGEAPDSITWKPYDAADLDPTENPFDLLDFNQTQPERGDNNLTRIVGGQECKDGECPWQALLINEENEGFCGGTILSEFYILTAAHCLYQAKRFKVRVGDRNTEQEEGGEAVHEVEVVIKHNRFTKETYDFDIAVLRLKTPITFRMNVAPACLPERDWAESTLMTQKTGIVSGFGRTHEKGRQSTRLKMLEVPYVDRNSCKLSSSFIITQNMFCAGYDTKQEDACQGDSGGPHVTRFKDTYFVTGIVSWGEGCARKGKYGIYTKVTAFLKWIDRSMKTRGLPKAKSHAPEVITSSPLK
Sequence of human plasma-derived FX (Haematologic Technologies Inc, USA) (human) (P00742 41-179, chain 1 of 2): as the sequence (P00742 41-179, chain 1 of 2) above
Sequence of human plasma-derived FX (Haematologic Technologies Inc, USA) (human) (P00742 183-488, chain 2 of 2): as the sequence (P00742 183-488, chain 2 of 2) above
T2 sequence (P00740 47-461 T194A limits assumed): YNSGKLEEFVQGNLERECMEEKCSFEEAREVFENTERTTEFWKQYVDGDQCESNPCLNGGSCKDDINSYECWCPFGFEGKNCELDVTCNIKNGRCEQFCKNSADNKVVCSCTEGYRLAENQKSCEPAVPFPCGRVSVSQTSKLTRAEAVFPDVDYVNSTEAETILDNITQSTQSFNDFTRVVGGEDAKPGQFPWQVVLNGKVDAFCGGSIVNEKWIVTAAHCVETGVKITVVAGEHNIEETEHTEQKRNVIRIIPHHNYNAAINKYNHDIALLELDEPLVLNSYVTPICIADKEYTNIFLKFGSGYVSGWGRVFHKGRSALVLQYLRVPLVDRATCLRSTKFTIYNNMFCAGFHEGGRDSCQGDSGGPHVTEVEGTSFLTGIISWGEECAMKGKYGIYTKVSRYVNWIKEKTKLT

| Molecule | KM (nM) of FX activation by 0.1 nM FIXa on phospholipid vesicles with 300 nM antibody [1] [nM] | kcat/KM (1/(min * nM)) of FX activation by 0.1 nM FIXa with 300 nM antibody [1] [M⁻¹ s⁻¹] | Kd [2] [nM] | Kd [3] [nM] | KM (nM) of FX activation by 0.1 nM FIXa on phospholipid vesicles with 5 nM compound [4] [nM] | kcat/KM (1/(min * nM)) of FX activation by 0.1 nM FIXa with 5 nM compound [4] [M⁻¹ s⁻¹] |
| --- | --- | --- | --- | --- | --- | --- |
| emicizumab sequence identical analogue (SIA) (bispecific antibody) | 53.5 | 500000 |  |  |  |  |
| Cmpd #6 (anti-FX/anti-FIX(a) VHH polypeptide derivative) (bispecific antibody, C16 diacid protractor (P2) via linker LP1 on Cys5 and Cys7 in C-term extension (SEQ ID NO: 8), Single chain of two VHH: anti-FX (N-terminal) and anti-FIX(a) (C-terminal)) DVQLVESGGGVVQPGGSLQLSCAASGRTHSRYAMGWFRQAPGQEREFVAAISRRGGSTNYADSVKGRFTISRDNSKNTVYLQMDSLRPEDTALYYCAADDSSGDGYLDYWGQGTLVTVSSGGGGSGGGSEVQLVESGGGVVQPGGSLQLSCAASGRTFNIYTMSWFRQAPGQEREFVAGLRWTDSSTEYADSVKGRFTISRDNSKNTVYLQMDSLRPEDTALYYCAADRSFLFAQALGATKNYEYWGQGTLVTVSSGGGGCSCHHHHHH |  |  | 232 | 4.8 | 5.9 | 5.5e+06 |
| Cmpd #15 (anti-FX/anti-FIX(a) VHH polypeptide derivative) (bispecific antibody, C16 diacid protractor (P2) via linker LP1 on Cys4 and Cys6 in C-term extension (SEQ ID NO:9), Single chain of two VHH: anti-FX (N-terminal) and anti-FIX(a) (C-terminal); also called VHH1.15-L1-2-VHH2.15-E) DVQLVESGGGVVQPGGSLQLSCAASGGTKRRLAMGWFRQAPGQEREWVAAISRRGGSTNYADSVKGRFTISRDNSKNTVYLQMDSLRPEDTALYYCAADDSVGDGYLDYWGQGTLVTVSSGQAPGQEVQLVESGGGVVQPGGSLQLSCAASGRTFNIYTMSWFRQAPGQEREFVAGLRWTDSSTEYADSVKGRFTISRDNSKNTVYLQMDSLRPEDTALYYCAADRSFLFAQALGATKNYEYWGQGTLVTVSSGQACPC |  |  | 350 | 3 | 6.9 | 4.17e+06 |
